The values below come from paper PMC6303191.

One assay concerns the target VRC01 UCA (human). Briefly: SPR. (In general: Surface plasmon resonance follows binding to a sensor surface in real time, without labels.)
The next assay addresses VRC01 UCA. Briefly: BLI. As to conditions: read at the end of association (300 s), read off a plot.

VRC01 UCA (human), sequence (heavy, as listed by the source, chain 1 of 2): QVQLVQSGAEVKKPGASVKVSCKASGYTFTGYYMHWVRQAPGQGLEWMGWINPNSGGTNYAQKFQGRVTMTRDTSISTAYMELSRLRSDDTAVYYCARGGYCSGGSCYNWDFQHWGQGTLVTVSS
VRC01 UCA (human), sequence (light, as listed by the source, chain 2 of 2): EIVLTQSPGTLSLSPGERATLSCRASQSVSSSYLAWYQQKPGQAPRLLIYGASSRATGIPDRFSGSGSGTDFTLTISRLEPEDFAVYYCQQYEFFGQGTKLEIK

For the substance “BG505 SOSIP v4.1-GT1 trimer (from UniProt Q2N0S6 1-860) (complex)”, in the assay with VRC01 UCA (human), the Kd (commonly the free concentration of one partner at which half of the binding sites on the other are occupied at equilibrium, for simple one-to-one binding) was determined as 3000 nM; the koff – broadly, the rate constant with which the complex falls apart – is 0.018 s⁻¹; the kon (commonly a measure of how fast the partners come together) amounted to 8000 M⁻¹ s⁻¹.

As to TM4ΔV1-3 (24-mer) D268R; E370A, in the assay with VRC01 UCA (VRC01 UCA IgG x 24-mer, parent: est. 0.68), the response was determined as 0 nm. As for TM4ΔV1-3 (heptamer) D368R; E370A, the response in the assay with VRC01 UCA (VRC01 UCA IgG x heptamer, parent: est. 0.43) was found to be 0 nm. For TM4ΔV1-3 (monomer) (domain or fragment), the Kd with VRC01 UCA (human) was > 100000 nM.
